Test results taken from PMC3842936.

What was measured:
[1] = target: native AdcAII of Streptococcus pneumoniae D39 (Streptococcus pneumoniae D39 (endogenous in D39 membranes)); assay: cross-linking + co-IP; S. pneumoniae D39 membrane preparations incubated with the thiol-cleavable cross-linker DTSSP (0.8 mM, 1 h) before the immuno-precipitation (x-IP); polyclonal antibody against AdcAII and protein A sepharose; immunoblot, signals quantified with Image J
[2] = target: native AdcAII of Streptococcus pneumoniae D39 (Streptococcus pneumoniae D39 (endogenous in D39 membranes)); assay: co-IP; S. pneumoniae D39 membranes solubilised in 2% Triton X-100, not cross-linked (IP); polyclonal antibody against AdcAII and protein A sepharose; 50 mM HEPES, 150 mM NaCl, pH 8, washes with 2% Triton X-100; immunoblot, signals quantified with Image J

Substance: native PhtD (polyhistidine triad protein D) of Streptococcus pneumoniae D39 (natural protein)
- percentage of membrane-bound protein immuno-precipitated by AdcAII polyclonal antibodies [1]: 12%
- percentage of membrane-bound protein immuno-precipitated by AdcAII polyclonal antibodies [2]: 1.7%
